The Kd is a measure of binding affinity in units of concentration. Lower therefore signals a tighter complex.

Experimental findings from patent US20220064275A1 (SCHOLAR ROCK, published 2022) are described below.

Experiment [1] has as its target T1, human LTBP1-proTGFβ1 complex (human, UniProt Q14766 873-1507).
T1 construct: range 873-1507; biotinylated in Octet and MSD-SET; also called hLTBP1-proTGFβ1; hLTBP1
The experiment is described as follows: BLI (Octet). Background: In BLI a coated tip is dipped into the sample, and binding shifts an interference pattern.

For experiment [2], the target named is T2, human LTBP3-proTGFβ1 complex (human, UniProt Q9NS15 866-1039).
T2 construct: range 866-1039; also called hLTBP3-proTGFβ1; hLTBP3
Kind of experiment: BLI (Octet).

The target in experiment [3] is T3, human GARP-proTGFβ1 complex (human, UniProt Q14392 20-627; P01137 30-390).
T3 construct: also called hGARP-proTGFβ1; hGARP
Kind of experiment: BLI (Octet).

Experiment [4] deals with T4, human LRRC33-proTGFβ1 complex (human, UniProt Q86YC3 19-650; P01137 30-390).
T4 construct: also called hLRRC33-proTGFβ1; hLRRC33
Kind of experiment: BLI (Octet).

For experiment [5], the target named is hLTBP1-proTGFβ1 complex made by transfected cells (cell-based potency assay) (human, UniProt Q14766 347-1721; P01137 30-390). The experiment is described as follows: cell-based or functional assay.
Experiment [6] concerns the target hLTBP3-proTGFβ1 complex made by transfected cells (cell-based potency assay) (human, UniProt Q9NS15 44-1303; P01137 30-390). Kind of experiment: cell-based or functional assay.
The target of experiment [7] is hGARP-proTGFβ1 complex on cells (human, UniProt Q14392 20-662; P01137 30-390). Kind of experiment: cell-based or functional assay.
Experiment [8] deals with hLRRC33-proTGFβ1 complex on cells (human, UniProt Q86YC3 19-692; P01137 30-390). Kind of experiment: cell-based or functional assay.
Experiment [9] deals with T1, human LTBP1-proTGFβ1 complex. The experiment is described as follows: MSD-SET, solution equilibrium titration. Here is the method:
(§1) MSD-SET assays were performed to measure affinities of the antibodies at equilibrium. Briefly, each test antibody was diluted 3-5 fold and samples were mixed with biotinylated antigen in a 48-well dish. The SET samples were equilibrated for 20-24 hours at room temperature. Meanwhile, a capture plate was coated with IgG (20 nM) and incubated overnight at 4° C. or 30 minutes at room temperature, followed by a blocking step with 5% BSA. After the capture plate was washed three times, SET samples were added and incubated for 150 seconds. The plate was washed once to remove unbound complexes. 250 ng/ml SA-Sulfotag was added then washed 3 times. 2× Read Buffer was added, and signals from the labeled bound complexes were read with the use of QuickPlex™ SQ 120 instrument.
(§2) As an example, MSD standard plates (MSD) were coated with a 20 nM solution of monoclonal antibody in PBS for 30 min at room temperature or overnight at 4° C. […] After 20-24 hours of equilibration, the antibody-coated plate was blocked with Blocking Buffer A (MSD) for 30 minutes at room temperature and washed with wash buffer (PBS, 0.1% BSA, 0.05% Tween-20) before adding the equilibrated antibody-antigen complexes to the plate for exactly 2.5 minutes. The plate was washed again with wash buffer before adding 250 ng/ml SULFO-TAG-labeled streptavidin secondary reagent (MSD) in PBS with 0.1% BSA. After washing with wash buffer, plates were read in MSD read buffer (MSD) using the MESO QuickPlex SQ 120 (MSD). The binding data were processed by nonlinear curve fitting in Prism 7 software (Graphpad) to calculate equilibrium binding KD values.

Experiment [10] has as its target T2, human LTBP3-proTGFβ1 complex. Kind of experiment: MSD-SET, solution equilibrium titration. Here is the method:
as §1, §2

Experiment [11] deals with T3, human GARP-proTGFβ1 complex. Kind of experiment: MSD-SET, solution equilibrium titration. The method, then: as §1, §2
Experiment [12] deals with T4, human LRRC33-proTGFβ1 complex. The experiment is described as follows: MSD-SET, solution equilibrium titration. The method, then: as §1, §2
The target in experiment [13] is T5, murine LTBP1-proTGFβ1 complex (mouse, UniProt Q8CG19 339-1712; P04202 30-390, limits assumed).
T5 construct: also called mLTBP1-proTGFβ1
Kind of experiment: MSD-SET, solution equilibrium titration. The method, then:
as §1, §2

Experiment [14] concerns the target T6, murine LTBP3-proTGFβ1 complex (mouse, UniProt Q61810 41-1245; P04202 30-390, limits assumed).
T6 construct: also called mLTBP3-proTGFβ1
The experiment is described as follows: MSD-SET, solution equilibrium titration. The method, then:
as §1, §2

The target of experiment [15] is T7, murine GARP-proTGFβ1 complex (mouse, UniProt G3XA59 18-628; P04202 30-390).
T7 construct: Soluble murine complex; also called mGARP-proTGFβ1
Kind of experiment: MSD-SET, solution equilibrium titration. Here is the method:
as §1, §2

For experiment [16], the target named is T8, murine LRRC33-proTGFβ1 complex (mouse, UniProt Q8BMT4 20-651, limits assumed).
T8 construct: also called mLRRC33-proTGFβ1
The experiment is described as follows: MSD-SET, solution equilibrium titration. Here is the method: as §1, §2

Experiment [17] concerns the target T6, murine LTBP3-proTGFβ1 complex. The experiment is described as follows: MSD-SET, solution equilibrium titration; MSD-SET, Table 21, mouse complex.
In experiment [18] the target is T3, human GARP-proTGFβ1 complex. The experiment is described as follows: MSD-SET solution equilibrium titration; Ab6 titrated against biotinylated hGARP-proTGFβ1, readout % free antigen. Here is the method: as §1
(§3) As an example, MSD standard plates (MSD) were coated with a 20 nM solution of monoclonal antibody in PBS for 30 min at room temperature or overnight at 4° C. […] After 20-24 hours of equilibration, the antibody-coated plate was blocked with Blocking Buffer A (MSD) for 30 minutes at room temperature and washed with wash buffer (PBS, 0.1% BSA, 0.05% Tween-20) before adding the equilibrated antibody-antigen complexes to the plate for exactly 2.5 minutes. […] After washing with wash buffer, plates were read in MSD read buffer (MSD) using the MESO QuickPlex SQ 120 (MSD). […]

The target of experiment [19] is T1, human LTBP1-proTGFβ1 complex. The experiment is described as follows: MSD-SET solution equilibrium titration; Ab6 titrated against biotinylated hLTBP1-proTGFβ1, readout % free antigen. The method, then: as §1, §3
The target of experiment [20] is T2, human LTBP3-proTGFβ1 complex. Kind of experiment: MSD-SET solution equilibrium titration; Ab6 titrated against biotinylated hLTBP3-proTGFβ1, readout % free antigen. Here is the method: as §1, §3
The target in experiment [21] is T4, human LRRC33-proTGFβ1 complex. Kind of experiment: MSD-SET solution equilibrium titration; Ab6 titrated against biotinylated hLRRC33-proTGFβ1, readout % free antigen. The method, then: as §1, §3

T4 sequence (Q86YC3 other isoform, or with tags, fused parts or gaps limits assumed, chain 1 of 2): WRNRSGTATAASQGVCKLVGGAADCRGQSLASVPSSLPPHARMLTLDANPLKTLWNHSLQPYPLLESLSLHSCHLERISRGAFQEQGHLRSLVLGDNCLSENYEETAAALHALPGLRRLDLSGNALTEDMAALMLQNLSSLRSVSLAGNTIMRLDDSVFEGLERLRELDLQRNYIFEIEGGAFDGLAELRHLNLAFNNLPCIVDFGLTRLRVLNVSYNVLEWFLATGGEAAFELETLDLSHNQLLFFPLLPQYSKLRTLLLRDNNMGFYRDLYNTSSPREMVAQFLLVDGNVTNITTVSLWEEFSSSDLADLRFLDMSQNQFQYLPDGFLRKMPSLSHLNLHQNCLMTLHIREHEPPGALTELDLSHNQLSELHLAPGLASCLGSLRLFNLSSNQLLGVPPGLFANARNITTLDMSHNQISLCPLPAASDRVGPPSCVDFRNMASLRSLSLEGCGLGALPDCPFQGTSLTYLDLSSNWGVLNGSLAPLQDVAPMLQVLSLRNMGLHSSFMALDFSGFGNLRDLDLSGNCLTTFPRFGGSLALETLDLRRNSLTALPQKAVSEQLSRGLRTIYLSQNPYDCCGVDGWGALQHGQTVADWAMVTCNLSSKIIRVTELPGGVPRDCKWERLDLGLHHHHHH
T4 sequence (P01137 30-390 limits assumed, chain 2 of 2): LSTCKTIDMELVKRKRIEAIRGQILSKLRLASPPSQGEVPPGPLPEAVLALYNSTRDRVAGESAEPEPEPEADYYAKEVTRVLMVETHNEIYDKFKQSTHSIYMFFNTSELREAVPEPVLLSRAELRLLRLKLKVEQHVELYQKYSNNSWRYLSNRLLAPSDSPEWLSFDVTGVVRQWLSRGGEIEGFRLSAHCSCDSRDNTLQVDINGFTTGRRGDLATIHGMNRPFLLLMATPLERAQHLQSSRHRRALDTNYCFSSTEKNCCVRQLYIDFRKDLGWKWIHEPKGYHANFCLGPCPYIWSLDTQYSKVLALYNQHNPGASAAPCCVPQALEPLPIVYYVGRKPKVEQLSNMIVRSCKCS
T1 sequence (Q14766 873-1507 limits assumed, chain 1 of 2): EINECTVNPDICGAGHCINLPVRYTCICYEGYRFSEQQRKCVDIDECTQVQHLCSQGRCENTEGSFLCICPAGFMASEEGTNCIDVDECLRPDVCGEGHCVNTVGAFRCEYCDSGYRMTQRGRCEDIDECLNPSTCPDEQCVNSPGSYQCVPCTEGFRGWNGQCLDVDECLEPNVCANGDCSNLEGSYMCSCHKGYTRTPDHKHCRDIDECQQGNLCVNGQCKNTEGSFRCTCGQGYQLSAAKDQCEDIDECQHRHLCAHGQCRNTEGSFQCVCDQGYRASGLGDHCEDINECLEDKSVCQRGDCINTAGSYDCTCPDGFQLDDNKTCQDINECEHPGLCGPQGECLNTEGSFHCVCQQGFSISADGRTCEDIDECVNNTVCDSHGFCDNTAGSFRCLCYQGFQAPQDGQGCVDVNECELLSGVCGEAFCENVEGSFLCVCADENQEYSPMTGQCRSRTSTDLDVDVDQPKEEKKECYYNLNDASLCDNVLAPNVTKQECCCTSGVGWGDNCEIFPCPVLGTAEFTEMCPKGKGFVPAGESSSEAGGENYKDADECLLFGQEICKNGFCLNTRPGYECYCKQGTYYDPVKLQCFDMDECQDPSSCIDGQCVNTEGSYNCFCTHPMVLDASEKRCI
T1 sequence (chain, as listed by the source limits assumed, chain 2 of 2): as the sequence (P01137 30-390 limits assumed, chain 2 of 2) above
T3 sequence (Q14392 20-627, chain 1 of 2): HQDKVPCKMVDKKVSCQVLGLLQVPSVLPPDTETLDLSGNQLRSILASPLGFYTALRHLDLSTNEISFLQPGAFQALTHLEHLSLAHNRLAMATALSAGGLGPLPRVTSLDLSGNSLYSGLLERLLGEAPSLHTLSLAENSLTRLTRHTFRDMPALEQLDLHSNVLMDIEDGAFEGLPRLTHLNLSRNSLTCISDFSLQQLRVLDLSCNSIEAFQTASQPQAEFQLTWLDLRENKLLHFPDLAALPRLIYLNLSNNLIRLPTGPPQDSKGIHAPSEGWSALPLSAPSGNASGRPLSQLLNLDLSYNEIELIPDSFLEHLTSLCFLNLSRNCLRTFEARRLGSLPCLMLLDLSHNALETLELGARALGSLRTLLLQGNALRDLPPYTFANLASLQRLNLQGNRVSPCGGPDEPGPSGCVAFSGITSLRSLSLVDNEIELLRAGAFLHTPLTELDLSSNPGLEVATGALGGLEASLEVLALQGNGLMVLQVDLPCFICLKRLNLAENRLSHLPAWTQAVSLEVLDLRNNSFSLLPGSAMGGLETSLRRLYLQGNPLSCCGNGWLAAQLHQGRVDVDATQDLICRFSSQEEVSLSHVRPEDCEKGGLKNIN
T3 sequence (P01137 30-390, chain 2 of 2): as the sequence (P01137 30-390 limits assumed, chain 2 of 2) above
T2 sequence (Q9NS15 866-1039 limits assumed, chain 1 of 2): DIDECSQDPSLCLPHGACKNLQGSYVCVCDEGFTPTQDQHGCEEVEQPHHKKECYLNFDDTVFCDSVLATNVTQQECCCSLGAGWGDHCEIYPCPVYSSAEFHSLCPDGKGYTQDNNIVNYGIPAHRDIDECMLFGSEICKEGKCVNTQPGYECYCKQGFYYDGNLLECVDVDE
T2 sequence (chain, as listed by the source limits assumed, chain 2 of 2): as the sequence (P01137 30-390 limits assumed, chain 2 of 2) above
T6 sequence (Q61810 other isoform, or with tags, fused parts or gaps limits assumed, chain 1 of 2): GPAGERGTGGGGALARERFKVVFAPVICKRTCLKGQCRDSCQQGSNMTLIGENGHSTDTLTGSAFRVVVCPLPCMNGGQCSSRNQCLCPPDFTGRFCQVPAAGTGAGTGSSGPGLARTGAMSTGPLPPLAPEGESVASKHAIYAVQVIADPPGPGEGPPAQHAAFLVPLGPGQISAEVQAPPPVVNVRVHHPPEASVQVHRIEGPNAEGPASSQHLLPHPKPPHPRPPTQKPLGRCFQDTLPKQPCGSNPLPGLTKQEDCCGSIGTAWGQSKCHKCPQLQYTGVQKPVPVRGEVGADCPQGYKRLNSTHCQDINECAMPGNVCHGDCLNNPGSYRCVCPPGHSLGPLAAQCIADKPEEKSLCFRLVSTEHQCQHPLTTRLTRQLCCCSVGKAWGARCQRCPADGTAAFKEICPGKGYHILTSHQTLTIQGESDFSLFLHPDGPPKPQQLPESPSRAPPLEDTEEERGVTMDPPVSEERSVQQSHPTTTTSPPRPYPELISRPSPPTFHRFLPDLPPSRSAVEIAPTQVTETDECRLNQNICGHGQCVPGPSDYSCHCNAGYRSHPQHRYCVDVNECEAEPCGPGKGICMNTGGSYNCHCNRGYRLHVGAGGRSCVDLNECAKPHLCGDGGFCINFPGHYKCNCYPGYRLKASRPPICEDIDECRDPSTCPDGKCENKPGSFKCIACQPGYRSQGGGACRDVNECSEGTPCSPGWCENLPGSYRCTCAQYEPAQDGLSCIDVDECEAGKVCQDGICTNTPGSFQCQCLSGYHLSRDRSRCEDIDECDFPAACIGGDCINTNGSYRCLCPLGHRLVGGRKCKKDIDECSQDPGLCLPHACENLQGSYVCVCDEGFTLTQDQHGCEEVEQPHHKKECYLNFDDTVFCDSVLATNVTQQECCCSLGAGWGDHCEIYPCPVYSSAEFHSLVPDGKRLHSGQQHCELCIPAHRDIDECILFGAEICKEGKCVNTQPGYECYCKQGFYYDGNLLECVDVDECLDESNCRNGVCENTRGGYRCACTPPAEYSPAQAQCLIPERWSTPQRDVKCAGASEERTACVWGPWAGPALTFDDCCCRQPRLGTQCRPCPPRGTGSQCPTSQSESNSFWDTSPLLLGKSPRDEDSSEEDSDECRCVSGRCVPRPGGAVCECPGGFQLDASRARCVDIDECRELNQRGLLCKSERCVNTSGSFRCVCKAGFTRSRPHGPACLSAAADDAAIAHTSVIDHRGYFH
T6 sequence (P04202 30-390 limits assumed, chain 2 of 2): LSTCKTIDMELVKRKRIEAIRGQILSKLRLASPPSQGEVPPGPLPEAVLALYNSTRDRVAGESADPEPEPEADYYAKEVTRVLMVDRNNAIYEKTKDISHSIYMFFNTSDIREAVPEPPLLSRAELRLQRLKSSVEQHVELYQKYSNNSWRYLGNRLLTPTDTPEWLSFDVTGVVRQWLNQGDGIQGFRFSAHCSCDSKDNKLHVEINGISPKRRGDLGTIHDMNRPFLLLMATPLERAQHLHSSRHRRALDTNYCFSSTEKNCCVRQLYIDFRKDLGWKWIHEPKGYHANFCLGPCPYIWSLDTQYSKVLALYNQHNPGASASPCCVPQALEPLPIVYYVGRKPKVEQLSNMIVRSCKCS
Sequence of hGARP-proTGFβ1 complex on cells (Q14392 20-662 limits assumed, chain 1 of 2): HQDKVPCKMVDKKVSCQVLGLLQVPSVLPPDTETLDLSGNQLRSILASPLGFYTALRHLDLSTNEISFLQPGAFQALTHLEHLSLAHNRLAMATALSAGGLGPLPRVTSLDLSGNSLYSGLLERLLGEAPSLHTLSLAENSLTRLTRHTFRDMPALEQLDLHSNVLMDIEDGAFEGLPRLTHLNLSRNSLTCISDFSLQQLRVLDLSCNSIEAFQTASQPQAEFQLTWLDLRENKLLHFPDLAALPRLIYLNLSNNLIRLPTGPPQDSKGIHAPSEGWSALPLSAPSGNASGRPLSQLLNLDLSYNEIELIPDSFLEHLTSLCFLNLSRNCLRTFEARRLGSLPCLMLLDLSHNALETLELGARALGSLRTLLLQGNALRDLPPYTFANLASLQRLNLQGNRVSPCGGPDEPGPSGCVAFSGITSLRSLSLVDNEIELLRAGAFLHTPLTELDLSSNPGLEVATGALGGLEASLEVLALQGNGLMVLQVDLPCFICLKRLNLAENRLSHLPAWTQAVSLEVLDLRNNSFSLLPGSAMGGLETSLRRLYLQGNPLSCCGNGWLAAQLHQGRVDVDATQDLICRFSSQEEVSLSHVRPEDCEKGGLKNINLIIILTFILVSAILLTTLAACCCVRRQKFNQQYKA
Sequence of hGARP-proTGFβ1 complex on cells (P01137 30-390 limits assumed, chain 2 of 2): as the sequence (P01137 30-390 limits assumed, chain 2 of 2) above

B1: Ab6 (antibody, human IgG4 S228P, kappa, V domains shown)
VH: EVQLVESGGGLVQPGGSLRLSCTASGFTFSSFSMDWVRQAPGKGLEWVSYISPSADTIYYADSVKGRFTISRDNAKNTLYLQMNSLRAEDTAVYYCARGVLDYGDMLMPWGQGTLVTVSS
VL: DIQMTQSPSSLSASVGDRVTITCQASQDITNYLNWYQQKPGKAPKLLIYDASNLETGVPSRFSGSGSGTDFTFTISSLQPEDIATYYCQQADNHPPWTFGGGTKVEIKR
Consider B1, for which the Kd in experiment [1] amounted to 0.207 nM; in experiment [2], 0.123 nM; in [3], 0.404 nM; in experiment [4] it was 0.336 nM; in experiment [9], 0.018 nM; in experiment [10], 0.029 nM. The Kd in [11] was 0.027 nM; in experiment [12] it was 0.063 nM; in [13] it was 0.024 nM; in experiment [14] it was 0.028 nM; in experiment [15], 0.021 nM; in experiment [16], 0.048 nM. In addition, in [17], the Kd worked out at 0.022 nM. Also, the “IC50, reporter cell assay of TGFβ1 activation” value in [5] was found to be 2.74 nM; in [6], 0.821 nM; in experiment [7] it was 0.324 nM; in experiment [8], 0.495 nM. The “IC50 (read off the curve)” value is roughly 30 pM in [18], roughly 20 pM in experiment [19], roughly 30 pM in experiment [20] and roughly 70 pM in [21].
